Reference: patent US20040022767A1 (Genentech, published 2004)

Tests used:
[1] = molecular target: T1, soluble rat elk/Fc fusion protein (rat; human, UniProt P09759 18-540; P01857 99-330 = IgG part, limits assumed); assay: indirect Scatchard analysis; elk/Fc titrated on transfected CV-1/EBNA-1 cells, detected with 125I-mouse anti-human IgG
T1 construct: extracellular domain;domain: Fc region (hinge to native C-terminus)
From the text: CV1-EBNA-1 cells (described in Example 3) in 12-well plates (2.5×10⁵ cells/well) were transfected with an expression vector containing the clone E7 elk-L cDNA. The mammalian expression vector, designated pDC410, is similar to pDC406 (McMahan et al., EMBO J. 10:2821, 1991). In pDC410, the EBV origin of replication of pDC406 is replaced by DNA encoding the SV40 large T antigen (driven from an SV40 promoter). The pDC410 multiple cloning site (mcs) differs from that of pDC406 in that it contains additional restriction sites and three stop codons (one in each reading frome). A T7 polymerase promoter downstream of the mcs facilitates sequencing of DNA inserted into the mcs. The transfected cells were cultured for two days to permit expression of the elk-L protein, then washed with BM-NFDMv (the binding medium described in Example 2, also containing 50 mg/ml nonfat dry milk), and incubated with various concentrations of the elk/Fc fusion protein prepared in Example 1, for 1 hour at 37° C. Subsequently, cells were washed and incubated with a constant saturating concentration of the ¹²⁵I-labeled mouse anti-human IgG antibody prepared in Example 2 (40 ng/ml) in binding medium with gentle agitation for 1 hour at 37° C. Cells then were harvested by trypsinization. […]

[2] = molecular target: T2, soluble hek/Fc fusion protein (human, UniProt P29320 21-541; P01857 99-330 = IgG part, limits assumed); assay: indirect Scatchard analysis, biphasic, first component; hek/Fc titrated on transfected CV-1/EBNA-1 cells, detected with 125I-mouse anti-human IgG
T2 construct: extracellular domain;domain: Fc region (hinge to native C-terminus); The extracellular domain and the dimeric state are inferred from that analogy
T2 sequence (P29320 other isoform, or with tags, fused parts or gaps limits assumed): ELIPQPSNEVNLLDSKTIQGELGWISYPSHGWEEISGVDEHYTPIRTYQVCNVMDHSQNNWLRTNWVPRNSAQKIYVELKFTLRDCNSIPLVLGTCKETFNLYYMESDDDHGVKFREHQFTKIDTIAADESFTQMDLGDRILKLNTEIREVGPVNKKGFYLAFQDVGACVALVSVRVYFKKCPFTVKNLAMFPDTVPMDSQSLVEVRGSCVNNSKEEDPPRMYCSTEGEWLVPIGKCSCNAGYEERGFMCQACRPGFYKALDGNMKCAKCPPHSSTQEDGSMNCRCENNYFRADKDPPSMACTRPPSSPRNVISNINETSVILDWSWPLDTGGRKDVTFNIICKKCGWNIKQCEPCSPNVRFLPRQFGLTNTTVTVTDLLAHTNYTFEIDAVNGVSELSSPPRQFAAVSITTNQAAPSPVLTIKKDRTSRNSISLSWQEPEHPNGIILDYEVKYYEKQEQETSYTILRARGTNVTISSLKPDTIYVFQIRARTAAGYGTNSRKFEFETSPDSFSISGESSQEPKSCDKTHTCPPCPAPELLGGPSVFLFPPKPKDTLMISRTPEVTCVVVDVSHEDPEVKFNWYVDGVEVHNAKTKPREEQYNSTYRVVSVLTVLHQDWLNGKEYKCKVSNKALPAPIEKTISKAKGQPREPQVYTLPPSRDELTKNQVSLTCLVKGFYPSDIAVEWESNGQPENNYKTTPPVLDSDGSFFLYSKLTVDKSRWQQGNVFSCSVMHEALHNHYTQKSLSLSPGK

[3] = molecular target: T2, soluble hek/Fc fusion protein; assay: indirect Scatchard analysis, biphasic, second component; hek/Fc titrated on transfected CV-1/EBNA-1 cells, detected with 125I-mouse anti-human IgG
[4] = molecular target: T1, soluble rat elk/Fc fusion protein; assay: indirect Scatchard analysis, biphasic, second component; elk/Fc titrated on transfected CV-1/EBNA-1 cells, detected with 125I-mouse anti-human IgG
[5] = molecular target: T1, soluble rat elk/Fc fusion protein; assay: indirect Scatchard analysis, biphasic, first component; elk/Fc titrated on transfected CV-1/EBNA-1 cells, detected with 125I-mouse anti-human IgG
[6] = molecular target: T2, soluble hek/Fc fusion protein; assay: indirect Scatchard analysis; hek/Fc titrated on transfected CV-1/EBNA-1 cells, detected with 125I-mouse anti-human IgG

T1 sequence (P09759 other isoform, or with tags, fused parts or gaps limits assumed): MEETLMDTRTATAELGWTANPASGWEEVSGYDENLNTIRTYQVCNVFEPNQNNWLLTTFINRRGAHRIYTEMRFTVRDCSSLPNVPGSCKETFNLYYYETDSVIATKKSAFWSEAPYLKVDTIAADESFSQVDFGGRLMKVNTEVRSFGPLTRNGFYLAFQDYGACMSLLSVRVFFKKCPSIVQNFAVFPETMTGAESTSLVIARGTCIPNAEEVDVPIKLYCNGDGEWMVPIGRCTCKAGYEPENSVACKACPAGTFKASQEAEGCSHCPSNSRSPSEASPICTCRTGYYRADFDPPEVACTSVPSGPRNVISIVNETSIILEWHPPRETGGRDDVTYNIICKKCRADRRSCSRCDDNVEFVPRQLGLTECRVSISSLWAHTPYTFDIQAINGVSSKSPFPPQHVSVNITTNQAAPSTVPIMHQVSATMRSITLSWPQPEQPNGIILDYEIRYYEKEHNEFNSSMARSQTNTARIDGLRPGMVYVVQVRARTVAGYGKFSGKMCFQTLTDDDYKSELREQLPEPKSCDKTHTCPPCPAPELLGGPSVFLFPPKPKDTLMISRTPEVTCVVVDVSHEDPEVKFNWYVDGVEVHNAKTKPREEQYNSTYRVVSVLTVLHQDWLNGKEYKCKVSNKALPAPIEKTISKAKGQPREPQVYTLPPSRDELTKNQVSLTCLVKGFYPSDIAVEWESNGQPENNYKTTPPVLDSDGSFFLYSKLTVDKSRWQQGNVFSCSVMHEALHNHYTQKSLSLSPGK

Ka [1] | Ka [2] | Ka [3] | Ka [4] | Ka [5] | Ka [6] | Binder
1.08e+09 M⁻¹ | 2.3e+07 M⁻¹ | 2.9e+06 M⁻¹ | – | – | – | human elk ligand (elk-L), clone E7, expressed on transfected CV-1/EBNA-1 cells (ligand) ATPLAKNLEPVSWSSLNPKFLSGKGLVIYPKIGDKLDIICPRAEAGRPYEYYKLYLVRPEQAAACSTVLDPNVLVTCNRPEQEIRFTIKFQEFSPNYMGLEFKKHHDYYITSTSNGSLEGLENREGGVCRTRTMKIIMKVGQDPNAVTPEQLTTSRPSKEADNTVKMATQAPGSRGSLGDSDGKHETVNQEEKSGPGASGGSSGDPDGFFNSKVALFAAVGAGCVIFLLIIIFLTVLLLKLRKRHRKHTQQRAAALSLSTLASPKGGSGTAGTEPSDIIIPLRTTENNYCPHYEKVSGDYGHPVYIVQEMPPQSPANIYYKV
– | – | – | 5.4e+07 M⁻¹ | 1.3e+08 M⁻¹ | 2e+08 M⁻¹ | hek-L protein designated C6, expressed on transfected CV-1/EBNA-1 cells (ligand, UniProt P52798 26-170, looked up, whole, on cells; also called hek-L C6; hek ligand C6) LRHVVYWNSSNPRLLRGDAVVELGLNDYLDIVCPHYEGPGPPEGPETFALYMVDWPGYESCQAEGPRAYKRWVCSLPFGHVQFSEKIQRFTPFSLGFEFLPGETYYYISVPTPESSGQCLRLQVSVCCKERKSESAHPVGSPGES
– | – | – | 3.5e+07 M⁻¹ | 2.7e+08 M⁻¹ | 2e+08 M⁻¹ | hek-L protein designated A2, expressed on transfected CV-1/EBNA-1 cells (ligand, UniProt P52797 23-214, looked up, whole, on cells; also called hek-L A2; hek ligand A2) QGPGGALGNRHAVYWNSSNQHLRREGYTVQVNVNDYLDIYCPHYNSSGVGPGAGPGPGGGAEQYVLYMVSRNGYRTCNASQGFKRWECNRPHAPHSPIKFSEKFQRYSAFSLGYEFHAGHEYYYISTPTHNLHWKCLRMKVFVCCASTSHSGEKPVPTLPQFTMGPNVKINVLEDFEGENPQVPKLEKSISG
– | – | – | 7e+07 M⁻¹ | 2.3e+08 M⁻¹ | 5.5e+07 M⁻¹ | B61 protein expressed on transfected CV-1/EBNA-1 cells (ligand, human, UniProt P20827 19-182, looked up, whole, on cells) DRHTVFWNSSNPKFRNEDYTIHVQLNDYVDIICPHYEDHSVADAAMEQYILYLVEHEEYQLCQPQSKDQVRWQCNRPSAKHGPEKLSEKFQRFTPFTLGKEFKEGHSYYYISKPIHQHEDRCLRLKVTVSGKITHSPQAHDNPQEKRLAADDPEVRVLHSIGHS
